Measurements reported in patent US20250320281A1 (published 2025).
Residue numbers refer to the chain shown, from its start.

B1: 1460_G14 (PGG14) (antibody, human IgG1, kappa, V domains shown)
VH: QVLLVQSGTEVKKPGSSVKVSCQASGGAFSSYAFSWVRQAPGQGLEWMGMITPVFGETKYAPRFQGRLTLTAEESLSTTYMELRSLTSDDTAFYYCTRDRRVVPMATDNWLDPWGQGTLVTVSS
VL: DIQLTQSPSSLSASVGDRVTVTCRASQTIHTYLNWYQQIPGKAPKLLIYGASTLQSGVPSRFSGSGSGTDFTLTINSLQPEDFATYYCQQSYSTPRTFGQGTRLDIKR
B2: 1456_P20 (PG20) (antibody, human IgG1, kappa, V domains shown)
VH: QVRLVQSGPEVKKPGSSVTVSCQASGGTFSSYAFTWVRQAPGQGLEWLGMVTPIFGEAKYSQRFEGRVTITADESTSTTSIELRGLTSEDTAIYYCARDRRAVPIATDNWLDPWGQGTLVTVSS
VL: B1 VL with T20S, V21I, H30N, T31N, I39T, T53N, S56N, N76S, Y92F
B3: 1495_C14 (PGC14) (antibody, human IgG1, lambda, V domains shown)
VH: DGHLVQSGVEVKKTGATVKISCKVSGYSFIDYYLHWVQRAPGKGLEWVGLIDPENGEARYAEKFQGRVTIIADTSIDTGYMEMRSLKSEDTAVYFCAAGAVGADSGSWFDPWGQGTLVTVSS
VL: SYELTQPPSVSVSPGQTASITCSGSKLGDKYVSWYQLRPGQSPILVMYENDRRPSGIPERFSGSNSGDTATLTISGTQALDEADFYCQAWETTTTTFVFFGGGTQLTVLG
B4: 1496_C09 (PG9) (TCN-109) (antibody, V domains shown)
VH: QRLVESGGGVVQPGSSLRLSCAASGFDFSRQGMHWVRQAPGQGLEWVAFIKYDGSEKYHADSVWGRLSISRDNSKDTLYLQMNSLRVEDTATYFCVREAGGPDYRNGYNYYDFYDGYYNYHYMDVWGKGTTVTVSS
VL: QSALTQPASVSGSPGQSITISCNGTSNDVGGYESVSWYQQHPGKAPKVVIYDVSKRPSGVSNRFSGSKSGNTASLTISGLQAEDEGDYYCKSLTSTRRRVFGTGTKLTVLG
B5: 1443_C16 (PG16) (TCN-116) (antibody, V domains shown)
VH: QEQLVESGGGVVQPGGSLRLSCLASGFTFHKYGMHWVRQAPGKGLEWVALISDDGMRKYHSDSMWGRVTISRDNSKNTLYLQFSSLKVEDTAMFFCAREAGGPIWHDDVKYYDFNDGYYNYHYMDVWGKGTTVTVSS
VL: QSALTQPASVSGSPGQTITISCNGTSSDVGGFDSVSWYQQSPGKAPKVMVFDVSHRPSGISNRFSGSKSGNTASLTISGLHIEDEGDYFCSSLTDRSHRIFGGGTKVTVLG
B6: 1460_G14 (PGG14) (antibody, human IgG1, kappa, V domains shown)
VH: B1 VH
VL: B1 VL

Legend:
Test in all cases: cell-based or functional assay
[1] = molecular target: HIV-1 93UG077 Env (pseudovirus) (HIV-1 isolate 93UG077)
[2] = molecular target: HIV-1 92BR020 Env (pseudovirus) (HIV-1 isolate 92BR020)
[3] = molecular target: HIV-1 APV-13 Env (pseudovirus) (HIV-1 isolate APV-13)
[4] = molecular target: HIV-1 APV-17 Env (pseudovirus) (HIV-1 isolate APV-17)
[5] = molecular target: HIV-1 APV-6 Env (pseudovirus) (HIV-1 isolate APV-6)
[6] = molecular target: HIV-1 93IN905 Env (pseudovirus) (HIV-1 isolate 93IN905)
[7] = molecular target: HIV-1 IAVI-C18 Env (pseudovirus) (HIV-1 isolate IAVI-C18)
[8] = molecular target: HIV-1 IAVI-C22 Env (pseudovirus) (HIV-1 isolate IAVI-C22)
[9] = molecular target: HIV-1 IAVI-C3 Env (pseudovirus) (HIV-1 isolate IAVI-C3)
[10] = molecular target: HIV-1 92UG024 Env (pseudovirus) (HIV-1 isolate 92UG024)
[11] = molecular target: HIV-1 92UG005 Env (pseudovirus) (HIV-1 isolate 92UG005)
[12] = molecular target: HIV-1 92TH021 Env (pseudovirus) (HIV-1 isolate 92TH021)
[13] = molecular target: HIV-1 CMU02 Env (pseudovirus) (HIV-1 isolate CMU02)
[14] = molecular target: HIV-1 94UG103 Env (pseudovirus) (HIV-1 isolate 94UG103)
[15] = molecular target: HIV-1 92RW020 Env (pseudovirus) (HIV-1 isolate 92RW020)
[16] = molecular target: HIV-1 93IN905 Env on pseudotyped virus (HIV-1 isolate 93IN905)
[17] = molecular target: HIV-1 IAVI_C22 Env on pseudotyped virus (HIV-1 isolate IAVI_C22)
[18] = molecular target: HIV-1 92TH021 Env on pseudotyped virus (HIV-1 isolate 92TH021)
[19] = molecular target: HIV-1 NL43 Env on pseudotyped virus (HIV-1 NL43)
[20] = molecular target: HIV-1 SF162 Env on pseudotyped virus (HIV-1 isolate SF162)
[21] = molecular target: HIV-1 94UG103 Env on pseudotyped virus (HIV-1 isolate 94UG103)
[22] = molecular target: HIV-1 92BR020 Env on pseudotyped virus (HIV-1 isolate 92BR020)

Row | Binder | IC50 (µg/mL), pseudovirus neutralization [1] [µg/mL] | IC50 (µg/mL), pseudovirus neutralization [2] [µg/mL] | IC50 (µg/mL), pseudovirus neutralization [3] [µg/mL] | IC50 (µg/mL), pseudovirus neutralization [4] [µg/mL] | IC50 (µg/mL), pseudovirus neutralization [5] [µg/mL] | IC50 (µg/mL), pseudovirus neutralization [6] [µg/mL] | IC50 (µg/mL), pseudovirus neutralization [7] [µg/mL] | IC50 (µg/mL), pseudovirus neutralization [8] [µg/mL] | IC50 (µg/mL), pseudovirus neutralization [9] [µg/mL] | IC50 (µg/mL), pseudovirus neutralization [10] [µg/mL] | IC50 (µg/mL), pseudovirus neutralization [11] [µg/mL] | IC50 (µg/mL), pseudovirus neutralization [12] [µg/mL] | IC50 (µg/mL), pseudovirus neutralization [13] [µg/mL] | IC50 (µg/mL), pseudovirus neutralization [14] [µg/mL] | IC50 (µg/mL), pseudovirus neutralization [15] [µg/mL] | further results
1 | B1 | > 50 | > 50 | > 50 | > 50 | > 50 | > 50 | > 50 | > 50 | > 50 | > 50 | > 50 | > 50 | > 50 | > 50 | > 50 | –
2 | B2 | > 50 | > 50 | > 50 | > 50 | 25.8 | > 50 | > 50 | > 50 | > 50 | > 50 | > 50 | > 50 | > 50 | > 50 | 50 | –
3 | B3 | > 50 | 0.64 | > 50 | > 50 | 7.41 | > 50 | > 50 | > 50 | 9.5 | > 50 | > 50 | > 50 | > 50 | > 50 | 28.6 | –
4 | B4 | > 50 | > 50 | > 50 | 26.4 | 0.09 | – | 0.05 | – | 12.9 | – | > 50 | – | > 50 | 0.17 | 0.06 | –
5 | B5 | > 50 | > 50 | > 50 | > 50 | 0.08 | 0.1 | 0.007 | 0.069 | 14.8 | > 50 | > 50 | 0.13 | > 50 | 0.008 | 0.004 | –
6 | B6 | – | – | – | – | – | – | – | – | – | – | – | – | – | – | – | Neutralizing Antibody Assay: IC50; Virus/Ab Incubation 1 hour [16]: > 50 µg/mL; Neutralizing Antibody Assay: IC50; Virus/Ab Incubation 18 hour [16]: 3.17 µg/mL; Neutralizing Antibody Assay: IC50; Virus/Ab Incubation 1 hour [17]: > 50 µg/mL; Neutralizing Antibody Assay: IC50; Virus/Ab Incubation 18 hour [17]: > 50 µg/mL; Neutralizing Antibody Assay: IC50; Virus/Ab Incubation 1 hour [18]: > 50 µg/mL; Neutralizing Antibody Assay: IC50; Virus/Ab Incubation 18 hour [18]: > 50 µg/mL; Neutralizing Antibody Assay: IC50; Virus/Ab Incubation 1 hour [19]: 0.17 µg/mL; Neutralizing Antibody Assay: IC50; Virus/Ab Incubation 18 hour [19]: 0.05 µg/mL; Neutralizing Antibody Assay: IC50; Virus/Ab Incubation 1 hour [20]: 0.179 µg/mL; Neutralizing Antibody Assay: IC50; Virus/Ab Incubation 18 hour [20]: 0.0573 µg/mL; Neutralizing Antibody Assay: IC50; Virus/Ab Incubation 1 hour [21]: > 50 µg/mL; Neutralizing Antibody Assay: IC50; Virus/Ab Incubation 18 hour [21]: > 50 µg/mL; Neutralizing Antibody Assay: IC50; Virus/Ab Incubation 1 hour [22]: > 50 µg/mL; Neutralizing Antibody Assay: IC50; Virus/Ab Incubation 18 hour [22]: > 50 µg/mL
